This note sets out measurements from US5858678.

Test [1] deals with 19K mutant 123-4 (substitutions for residues 123-124) bait (GAL4(1-147)-19 kD fusion) (yeast; adenovirus) (UniProt P04386). Kind of test: yeast two-hybrid, ONPG beta-galactosidase assay.
For test [2], the target named is 19K mutant 14-5 bait (GAL4(1-147)-19 kD fusion) (yeast; adenovirus) (UniProt P04386). The test can be described thus: yeast two-hybrid, ONPG beta-galactosidase assay.
The target of test [3] is 19K mutant 146-E bait (GAL4(1-147)-19 kD fusion) (yeast; adenovirus) (UniProt P04386). Kind of test: yeast two-hybrid, ONPG beta-galactosidase assay.
The target in test [4] is 19K mutant 29-0 bait (GAL4(1-147)-19 kD fusion) (yeast; adenovirus) (UniProt P04386). Kind of test: yeast two-hybrid, ONPG beta-galactosidase assay.
Test [5] has as its target 19K mutant 50-1 (amino acids 50-51) bait (GAL4(1-147)-19 kD fusion) (yeast; adenovirus) (UniProt P04386). The test can be described thus: yeast two-hybrid, ONPG beta-galactosidase assay.
For test [6], the target named is 19K mutant 75-6 (substitution for residues 75-76) bait (GAL4(1-147)-19 kD fusion) (yeast; adenovirus) (UniProt P04386). The test can be described thus: yeast two-hybrid, ONPG beta-galactosidase assay.
In test [7] the target is 19K mutant 90-6 (amino acids 90-96) bait (GAL4(1-147)-19 kD fusion) (yeast; adenovirus) (UniProt P04386). Kind of test: yeast two-hybrid, ONPG beta-galactosidase assay.
Test [8] has as its target Bcl-2 deletion mutant #106-5 (lacks residues 106 to 115) bait in pMA424 (yeast; human). The test can be described thus: yeast two-hybrid, ONPG beta-galactosidase assay.
Test [9] concerns the target Bcl-2 deletion mutant #42-8 (lacks residues 42 to 48) bait in pMA424 (yeast; human). The test can be described thus: yeast two-hybrid, ONPG beta-galactosidase assay.
The target of test [10] is Bcl-2 deletion mutant #80-6 (lacks residues 80 to 86) bait in pMA424 (yeast; human). Kind of test: yeast two-hybrid, ONPG beta-galactosidase assay.
Test [11] has as its target GAL4(1-147)-19K fusion protein (adenovirus E1B 19 kD protein bait, wild type) (yeast; adenovirus) (UniProt P04386). Kind of test: yeast two-hybrid, ONPG beta-galactosidase assay.
Test [12] has as its target human Bcl-2 bait (pMA424-based GAL4 DNA-binding domain fusion, residues 1-239 of Bcl2), wild type (yeast; human). Kind of test: yeast two-hybrid, ONPG beta-galactosidase assay.
The target in test [13] is GAL4(1-147)-19K fusion protein (adenovirus E1B 19 kD protein bait, wild type) (yeast; adenovirus) (UniProt P04386). Kind of test: yeast two-hybrid, ONPG beta-galactosidase assay, relative to the 19K bait.
Test [14] concerns the target human Bcl-2 bait (pMA424-based GAL4 DNA-binding domain fusion, residues 1-239 of Bcl2), wild type (yeast; human). Described as above.

Sequence of Nip3 (19K-interacting protein 3), protein coded by cDNA clone 91, tagged with the GAL4 activation domain (chain): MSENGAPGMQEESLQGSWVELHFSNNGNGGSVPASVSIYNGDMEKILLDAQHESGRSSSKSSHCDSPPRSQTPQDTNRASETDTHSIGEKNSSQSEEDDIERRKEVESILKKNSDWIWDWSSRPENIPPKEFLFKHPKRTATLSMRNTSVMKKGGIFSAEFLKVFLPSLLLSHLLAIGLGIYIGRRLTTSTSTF
Sequence of Nip1 (19K-interacting protein 1), protein coded by cDNA clone 22, tagged with the GAL4 activation domain (chain): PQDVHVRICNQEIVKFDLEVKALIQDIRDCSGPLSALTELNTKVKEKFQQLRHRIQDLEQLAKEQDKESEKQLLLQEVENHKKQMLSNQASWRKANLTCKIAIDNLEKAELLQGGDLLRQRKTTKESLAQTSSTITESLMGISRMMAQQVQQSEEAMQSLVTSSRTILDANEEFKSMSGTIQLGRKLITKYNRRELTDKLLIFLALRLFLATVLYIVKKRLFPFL
Sequence of Nip2 (19K-interacting protein 2), protein coded by cDNA clone 44, tagged with the GAL4 activation domain (chain): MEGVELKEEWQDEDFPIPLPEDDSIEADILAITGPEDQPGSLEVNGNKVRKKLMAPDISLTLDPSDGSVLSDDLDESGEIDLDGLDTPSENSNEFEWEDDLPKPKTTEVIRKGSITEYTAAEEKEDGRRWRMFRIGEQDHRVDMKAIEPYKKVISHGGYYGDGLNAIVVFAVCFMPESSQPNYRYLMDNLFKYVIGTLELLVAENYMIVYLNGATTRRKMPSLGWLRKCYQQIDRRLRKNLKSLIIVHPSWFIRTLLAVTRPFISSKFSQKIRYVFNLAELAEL

As to “Nip1 (19K-interacting protein 1), protein coded by cDNA clone 22, tagged with the GAL4 activation domain”, the relative level of lacZ expression (ONPG) (relative level) in [1] is 0.05; in test [2], 0.61; in test [3], 0.87; in test [4], 0.33; in test [5], below 0.01; in [6], 1.72. Moreover, the relative level of lacZ expression (ONPG) (relative level) in test [7] is below 0.01; in [8], 0.01; in test [9], 0.16; in test [10], 1.21; in [11], 1; in test [12] it was 1. The results for the relative level of lacZ expression (ONPG) (relative level) in test [13] and in test [14] were 1 and 1.8, respectively.
On to “Nip2 (19K-interacting protein 2), protein coded by cDNA clone 44, tagged with the GAL4 activation domain”, for which the relative level of lacZ expression (ONPG) (relative level) in test [1] is 0.24; in test [2] it was 0.55; in [3] it was 0.98; in [4], 0.32; in test [5] it was 0.09; in [6], 1.6. Besides, the relative level of lacZ expression (ONPG) (relative level) was determined as 0.04 in test [7]; 0.06 in [8]; 0.09 in test [9]; 0.8 in [10]; 1 in test [11]; 1 in test [12]. In addition, the relative level of lacZ expression (ONPG) (relative level) in [13] worked out at 1; in [14] it was 0.7.
For the substance “Nip3 (19K-interacting protein 3), protein coded by cDNA clone 91, tagged with the GAL4 activation domain”, the relative level of lacZ expression (ONPG) (relative level) in [1] is 0.1; in [2], 0.16; in [3], 0.28; in test [4], 0.19; in test [5], 0.01; in test [6], 0.22. Besides, the relative level of lacZ expression (ONPG) (relative level) in test [7] came to 0.01; in test [8] it was 0.11; in [9], 0.19; in test [10] it was 2.87; in test [11], 1; in test [12], 1. Also, the relative level of lacZ expression (ONPG) (relative level) in [13] worked out at 1; in [14], 1.5.
